Assay results from the supplement of paper PMC10567573.

B1: SNX8 (parent)
chain: RMVPALPPKRMLGADREFIEARRR

Variants of: B1
Assay: protein stability index of a GFP-peptide fusion (GPS, HEK-293T) (PSI 1-6); higher = more stable
Details: c terminus: a fixed tail appended
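Note: lentivirally expressed fusions sorted by FACS into six bins by GFP to DsRed ratio, PSI derived from sequencing read proportions per bin multiplied by bin number.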

Point of comparison: RMVPALPPERMLGADREFIEARRR [K9E], protein stability index 4.12. Against it:
- RMVPALWPKRMLGADREFIEARRR [P7W] — lower, 3.3
- RMVPALYPKRMLGADREFIEARRR [P7Y] — lower, 3.49
- RMVPALPAKRMLGADREFIEARRR [P8A] — higher, 4.23
- RMVPALPCKRMLGADREFIEARRR [P8C] — lower, 2.77
- RMVPALPDKRMLGADREFIEARRR [P8D] — lower, 3.82
- RMVPALPEKRMLGADREFIEARRR [P8E] — lower, 3.86
- RMVPALPFKRMLGADREFIEARRR [P8F] — lower, 3.18
- RMVPALPGKRMLGADREFIEARRR [P8G] — lower, 3.53
- RMVPALPHKRMLGADREFIEARRR [P8H] — lower, 3.85
- RMVPALPIKRMLGADREFIEARRR [P8I] — lower, 3.02
- RMVPALPKKRMLGADREFIEARRR [P8K] — lower, 3.87
- RMVPALPLKRMLGADREFIEARRR [P8L] — lower, 3.17
- RMVPALPMKRMLGADREFIEARRR [P8M] — lower, 3.06
- RMVPALPNKRMLGADREFIEARRR [P8N] — lower, 3.79
- RMVPALPQKRMLGADREFIEARRR [P8Q] — lower, 3.79
- RMVPALPRKRMLGADREFIEARRR [P8R] — lower, 3.88
- RMVPALPSKRMLGADREFIEARRR [P8S] — lower, 3.73
- RMVPALPTKRMLGADREFIEARRR [P8T] — lower, 3.31
- RMVPALPVKRMLGADREFIEARRR [P8V] — lower, 3.44
- RMVPALPWKRMLGADREFIEARRR [P8W] — lower, 3.31
- RMVPALPYKRMLGADREFIEARRR [P8Y] — lower, 3.88
- RMVPALPPARMLGADREFIEARRR [K9A] — lower, 4.09
- RMVPALPPCRMLGADREFIEARRR [K9C] — lower, 2.95
- RMVPALPPDRMLGADREFIEARRR [K9D] — the same, 4.12
- RMVPALPPFRMLGADREFIEARRR [K9F] — lower, 3.83
- RMVPALPPGRMLGADREFIEARRR [K9G] — lower, 3.6
- RMVPALPPHRMLGADREFIEARRR [K9H] — higher, 4.53
- RMVPALPPIRMLGADREFIEARRR [K9I] — higher, 4.17
- RMVPALPPLRMLGADREFIEARRR [K9L] — lower, 4.01
- RMVPALPPMRMLGADREFIEARRR [K9M] — lower, 3.81
- RMVPALPPNRMLGADREFIEARRR [K9N] — higher, 4.26
- RMVPALPPPRMLGADREFIEARRR [K9P] — higher, 4.37
- RMVPALPPQRMLGADREFIEARRR [K9Q] — higher, 4.73
- RMVPALPPRRMLGADREFIEARRR [K9R] — lower, 2.99
- RMVPALPPSRMLGADREFIEARRR [K9S] — higher, 4.35
- RMVPALPPTRMLGADREFIEARRR [K9T] — lower, 3.64
- RMVPALPPVRMLGADREFIEARRR [K9V] — higher, 4.61
- RMVPALPPWRMLGADREFIEARRR [K9W] — lower, 4.02
- RMVPALPPYRMLGADREFIEARRR [K9Y] — lower, 3.95
- RMVPALPPKAMLGADREFIEARRR [R10A] — higher, 4.23
- RMVPALPPKCMLGADREFIEARRR [R10C] — lower, 3.61
- RMVPALPPKDMLGADREFIEARRR [R10D] — higher, 4.61
- RMVPALPPKEMLGADREFIEARRR [R10E] — higher, 4.84
- RMVPALPPKFMLGADREFIEARRR [R10F] — lower, 3.39
- RMVPALPPKGMLGADREFIEARRR [R10G] — higher, 4.16
- RMVPALPPKHMLGADREFIEARRR [R10H] — higher, 4.21
- RMVPALPPKIMLGADREFIEARRR [R10I] — lower, 3.94
- RMVPALPPKKMLGADREFIEARRR [R10K] — lower, 3.81
- RMVPALPPKLMLGADREFIEARRR [R10L] — lower, 3.5
- RMVPALPPKMMLGADREFIEARRR [R10M] — lower, 4.06
- RMVPALPPKNMLGADREFIEARRR [R10N] — lower, 3.98
- RMVPALPPKPMLGADREFIEARRR [R10P] — higher, 4.44
- RMVPALPPKQMLGADREFIEARRR [R10Q] — higher, 4.39
- RMVPALPPKSMLGADREFIEARRR [R10S] — lower, 4.05
- RMVPALPPKTMLGADREFIEARRR [R10T] — higher, 4.24
- RMVPALPPKVMLGADREFIEARRR [R10V] — lower, 4.04
- RMVPALPPKYMLGADREFIEARRR [R10Y] — lower, 3.71
- RMVPALPPKRALGADREFIEARRR [M11A] — lower, 3.86
- RMVPALPPKRCLGADREFIEARRR [M11C] — lower, 3.46
- RMVPALPPKRDLGADREFIEARRR [M11D] — higher, 4.62
- RMVPALPPKRELGADREFIEARRR [M11E] — lower, 3.91
- RMVPALPPKRFLGADREFIEARRR [M11F] — lower, 3.36
- RMVPALPPKRGLGADREFIEARRR [M11G] — higher, 4.28
- RMVPALPPKRHLGADREFIEARRR [M11H] — lower, 3.52
- RMVPALPPKRILGADREFIEARRR [M11I] — higher, 4.78
- RMVPALPPKRKLGADREFIEARRR [M11K] — lower, 3.94
- RMVPALPPKRLLGADREFIEARRR [M11L] — lower, 3.69
- RMVPALPPKRNLGADREFIEARRR [M11N] — lower, 3.77
- RMVPALPPKRPLGADREFIEARRR [M11P] — higher, 4.42
- RMVPALPPKRQLGADREFIEARRR [M11Q] — lower, 3.6
- RMVPALPPKRRLGADREFIEARRR [M11R] — higher, 4.58
- RMVPALPPKRSLGADREFIEARRR [M11S] — higher, 4.23
- RMVPALPPKRTLGADREFIEARRR [M11T] — higher, 4.27
- RMVPALPPKRVLGADREFIEARRR [M11V] — lower, 3.37
- RMVPALPPKRWLGADREFIEARRR [M11W] — lower, 2.54
- RMVPALPPKRYLGADREFIEARRR [M11Y] — lower, 2.99
- RMVPALPPKRMAGADREFIEARRR [L12A] — higher, 4.53
- RMVPALPPKRMCGADREFIEARRR [L12C] — lower, 3.91
- RMVPALPPKRMDGADREFIEARRR [L12D] — higher, 4.54
- RMVPALPPKRMEGADREFIEARRR [L12E] — higher, 5.11
- RMVPALPPKRMFGADREFIEARRR [L12F] — the same, 4.12
- RMVPALPPKRMGGADREFIEARRR [L12G] — higher, 4.66
- RMVPALPPKRMHGADREFIEARRR [L12H] — lower, 4
- RMVPALPPKRMIGADREFIEARRR [L12I] — lower, 4.08
- RMVPALPPKRMKGADREFIEARRR [L12K] — lower, 3.25
- RMVPALPPKRMMGADREFIEARRR [L12M] — lower, 3.95
- RMVPALPPKRMNGADREFIEARRR [L12N] — higher, 4.89
- RMVPALPPKRMPGADREFIEARRR [L12P] — higher, 4.18
- RMVPALPPKRMQGADREFIEARRR [L12Q] — higher, 4.61
- RMVPALPPKRMRGADREFIEARRR [L12R] — higher, 4.19
- RMVPALPPKRMSGADREFIEARRR [L12S] — higher, 4.41
- RMVPALPPKRMTGADREFIEARRR [L12T] — higher, 4.43
- RMVPALPPKRMVGADREFIEARRR [L12V] — higher, 4.42
